# Source: the domain aggregation screens of Martell et al. (2025)
# Assay: soluble fraction after stress (log2 fold change); higher = more stays soluble; pooled small domains, quantitative proteomics
# Conditions: stress: 75 degC
# 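Further: 20 min heating vs room temperature control held 20 min.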
row,Sequence,soluble fraction (log2)
1,HMPPNPELGKKLLKLRKEFKMTQDDVANILGMSRTSFSKYENGIANPPLQVMRKLASIYNVGLEYLI,-1.84
2,HMPQEMIEILATPNGWLRVRQGPGTNYPEITKVNSGEEFPLLEEKDSWFKIRIEEGQEGWISSQYAQKEE,0.00978
3,HMPQGFEDLTEREREVLTLIAEGRTNQEIADALVISIKTVNRHRENIMAKLNLHSRVELVRYAIAQGLI,-2.61
4,HMPQNLQDQLFELILSRYPRRADAVEDLANILHLGKDPVYRRLRGDTFLSPLEISTLALHFRISLDALIV,-2.5
5,HMPQPEIEIAAVVPYSAGALLSRIHDDGELLAPVEYRGEGVFVHARVPADIEAAMRRGGMLSPAET,0.0386
6,HMPQQVFKREDLQKWGLTGQADSRKRREKLGQLLGIGYGNGKQLIHRLNMFQVDRATFEQAIKQINQEEDH,-0.539
7,HMPQTNIYPNPAFDKLFVSNLENETNFKIMDLFGRTIINSKTKGEISISELKSGIYIIEINNFRQKFVK,-2.64
8,HMPQVALAIDEMKRELASPDIVKTLLATTFKGLSEVNMRQAMLDGMIQGHTIADFFKKDVYAIPFGSGYSL,0.049
9,HMPRPFPELTTREHDILALIARGWSNGRIADHLSLSGKTVSNYVSNILGKLQVTARAEAAERAREAGMGQ,-0.379
10,HMPRRSYLDARKKLLGMLNSPDFNSGDQIPAERELSEVLGISRVTVRKIITELIDEGVLERRGNQGTWLVD,-1.01
11,HMPRSREVHVEPGMVLEDVTTGFVGAVIRTEKSAGIYVIELEDRRGRRRSFPLGGGFWLDGRPIIALPPLP,-1.81
12,HMPSLAVYPNPVKDILNIATDKPVHSIRIYNVYGSEVLRAADTNRIDVSHLPAGVYMVSADGKVTRIIK,-0.858
13,HMPSLGGLLALLKRNRKPDAMEALDRLISKEDRPETAEALENIREKVRNMQMREAEGLLLALMEP,-0.509
14,HMPSLILADEPTGNLDSRNSSEVIALLKNASKRYAQTIIMITHNRSIAQSADRVLQVSDGVLTDMG,0.345
15,HMPSLNDRPDDVLYLFSYFLQSFSHRQVSLPKILKKALIQHDWWGNIRELHSVALRYYIFGDTLNGAYDSL,-0.99
16,HMPSLSREREAAILEMIERRPSTAEDVASGLGLAVNEVIKLLDGTALRGSVETFQSGEEIYYTRKR,0.472
17,HMPSNVKIPDVTGKTVAQARSAIEAAGLKVGKEKDEYSDSAKKDSVIRTNPQAGTQRREGSTVDLIVS,0.175
18,HMPSPFYIMDEVEAALDDTNLGRLITLFEELRDSSQLIVITHQKKTMEIADALYGVTMRGDGITTVVSQRL,0.151
19,HMPSQEQSDKNAAMAFLPVIVKNALNGKGLKISDDWKAAVNTALAQYPLVNKFFNADSPEVTELVMGL,-0.0584

row,Sequence,soluble fraction (log2)
1,HMPSQLPLAFARRHGVLLRGFSNGLAQLTVRPEVSTLSLAETRRHLGVPLALEKVTTERFDQLLREAYEA,-0.9
2,HMPSYYKELQNYSPENPVVKKRKVHPDVVNAIKYLAEITDGNPMLIKAYAQMILAHVFTTMPLIDKSV,-0.00519
3,HMPTEAIVLQQIQIRQSPSGNSKSLQQILPGAKIKITSESSVKGWKQVSLDGGQKGWIPTAAIGL,-0.499
4,HMPTELVYTVPASAEGLRLDHFLVQHVPHMTRALATELTGAGGVRVNGRRAKKGDRLPSGAEVRLER,0.0576
5,HMPTFAEKLHEVRKARDFTQDQLAKEMNVSRQTISHWENGRAVPDIDTIKHLSQVLDYNFLV,0.0869
6,HMPTITIQRGIILSSTTKGFIDELSHSQIKNAIVERLGEHHVMIHESQLDAVIKYAQKKEAVINIYL,-0.874
7,HMPTMEQTYIGRTMIAEEDMGKNSKIKVSGIYWTAYNKGRVIKKGEEYKITGIEGNKLIVSSK,-0.393
8,HMPTNSDRLIGSDGVVSSKIDNLQGTGKVYISGLTWSARTIDGSEAEEGDIVTVEKIEGATLYVTKR,0.174
9,HMPTNVYSIIGKEGIVLESIDNLNSTGKVKVNGELWSAISDSNIEKGETIKVLSVNGVKLKVEKVN,-0.00656
10,HMPTPASGSSGYINATNVNFRTGPATSYKSISKLAKNTAVTILGTSGNWYKVTVGSLGKNGYVFATYVTVS,-2.23
11,HMPTPLTPREHEIANLIAQGLSNREIADELVISPATAARHVANILAKLGFSSRTQVASWATRHD,-0.277
12,HMPTSLPGIDIDEKNIVSSTGALSFKKVPKKLAIIGGGYIGLEMGSVWSRLGSSVTVIEYLNFITPG,0.365
13,HMPTTLEGIEKYLSSGLIKGIGPHLAGKLVEAFGTRVFEVVEHQPERLRTVGGIGRTRAESITSAWRDQ,-0.146
14,HMPTTNIRAFRLREADPESVKEALSMVMPKTSIYVDARTKSVLVVGLLDELARAAEIVALIDQP,-2.8
15,HMPVFSAEQVAKAEADVQKVANKVQEAGADVEKLTTIHNWLLAREKYMPPDLFSTANQIIATAFQKAG,0.525
16,HMPVGSIGERLKALRLKAGLTQEEVGQHVHISKQTLYKYENGIVTNIPADKIELLATIYSVTPAYIMGWA,-2.27
17,HMPVQPMDPSIEHISALTGKQFQAFPGQDHRAHMTAHLNFMSTNIVRNNPAVMGAIQKNILEHISLMAQEQ,0.322
18,HMPVSLHEQIQQARIRAEQNVEGISLLLQVNPKYYEQIEAGDVIPDQDLLKRISSLFGWNYHEMLHREKSS,-0.781
19,HMPVSTLLGDNLRRLRTAKGYTQEAVADAARISVAAYRNYETGRAIPKVNTLLAIARALGVSLNDLVTE,-0.605
